Results taken from US20240190999A1 (Molecular Partners, published 2024).
Values belong to the binder of their own block, whether it stands above or below them.

Legend:
[1] = biological target: cynomolgus serum albumin (CSA) (cynomolgus monkey, UniProt A2V9Z4 25-608); assay: SPR (ProteOn XPR36), MpA captured on bio.h4-1BB, CSA analyte, 1:1 Langmuir fit
Procedure: (§1) ProteOn setup for MpA binding to serum albumin of different species: SPR measurements were performed using a ProteOn XPR36 instrument (BioRad). The running buffer was PBS pH 7.4 containing 0.005% Tween 20® (PBST). First, bio.h4-1BB was coated on NLC chip (BioRad) to a level of 320 RU before […] MpA was immobilized for 180 s at constant flow of 30 μl/min to a level of 200 RU. The binding of the serum albumin to MpA was detected by applying HSA (human serum albumin), CSA (cynomolgus serum albumin) and MSA (mouse serum albumin) as titration with a 180 s association and 1800 s dissociation phase using a constant flow of 100 μl/min. HSA, CSA and MSA binding was measured serially and the bio.h4-1BB/MpA complex was regenerated each time with 10 mM glycine pH 2 and 124 mM H3P04. Thus, MpA had to be recoated after each regeneration step. The signals were double referenced against the running buffer (PBST) treated control lane of L1 and A6. The 1:1 Langmuir model was used for the fitting.

cynomolgus FAP (cFAP) = biological target: T1, cynomolgus FAP (cFAP) (cynomolgus monkey); assay: SPR (ProteOn XPR36), cFAP on GLC chip, MpA analyte, 1:1 Langmuir fit
T1 chain: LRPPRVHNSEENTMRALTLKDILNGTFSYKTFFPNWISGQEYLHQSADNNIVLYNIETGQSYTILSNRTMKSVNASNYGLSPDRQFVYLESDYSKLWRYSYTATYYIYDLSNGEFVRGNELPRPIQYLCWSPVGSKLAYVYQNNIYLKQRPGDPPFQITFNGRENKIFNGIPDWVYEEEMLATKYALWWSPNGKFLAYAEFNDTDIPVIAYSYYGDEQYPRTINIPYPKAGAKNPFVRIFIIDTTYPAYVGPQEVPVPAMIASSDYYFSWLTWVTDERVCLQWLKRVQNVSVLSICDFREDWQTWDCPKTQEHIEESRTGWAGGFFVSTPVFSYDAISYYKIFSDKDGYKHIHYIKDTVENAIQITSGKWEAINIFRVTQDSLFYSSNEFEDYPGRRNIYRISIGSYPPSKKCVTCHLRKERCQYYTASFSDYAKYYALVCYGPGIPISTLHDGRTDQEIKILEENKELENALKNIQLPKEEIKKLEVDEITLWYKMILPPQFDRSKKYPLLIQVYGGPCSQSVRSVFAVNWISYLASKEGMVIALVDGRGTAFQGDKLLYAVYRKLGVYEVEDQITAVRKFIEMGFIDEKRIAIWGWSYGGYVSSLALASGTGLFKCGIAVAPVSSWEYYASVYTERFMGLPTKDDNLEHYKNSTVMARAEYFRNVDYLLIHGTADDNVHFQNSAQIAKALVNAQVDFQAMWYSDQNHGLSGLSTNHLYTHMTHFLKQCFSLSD
Procedure: (§2) ProteOn setup for MpA binding to FAP of different species: SPR measurements were performed using a ProteOn XPR36 instrument (BioRad). The running buffer was PBS pH 7.4 containing 0.005% Tween 200 (PBST). hFAP (human FAP), cFAP (cynomolgus FAP) and mFAP (mouse FAP) were immobilized on a GLC chip (BioRad) at pH 5.3 to a level of 2000 RU, 1700 RU and 5000 RU, respectively. The interaction of FAP and MpA was measured by applying the MpA molecule as titration (see Table 2).

[2] = biological target: T2, biotinylated human 4-1BB (bio.h4-1BB) (human, UniProt Q07011 24-186, limits assumed, biotinylated (site not stated)); assay: SPR (ProteOn XPR36), bio.h4-1BB on NLC chip, MpA analyte; mean of triplicate
T2 construct: also called CD137
T2 sequence (Q07011 24-186 limits assumed): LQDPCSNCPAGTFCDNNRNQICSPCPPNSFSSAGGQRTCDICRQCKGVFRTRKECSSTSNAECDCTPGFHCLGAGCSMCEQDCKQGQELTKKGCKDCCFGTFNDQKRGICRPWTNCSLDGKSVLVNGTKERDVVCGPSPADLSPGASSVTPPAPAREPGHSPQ
Procedure: (§3) ProteOn setup for MpA binding to 4-1BB of different species: SPR measurements were performed using a ProteOn XPR36 instrument (BioRad). The running buffer was PBS pH 7.4 containing 0.005% Tween 20® (PBST). The bio.h4-1BB, bio.c4-1BB and bio.m4-1BB were immobilized on NLC chips (BioRad) to a level of 320 RU. The binding of MpA to 4-1BB was measured by injecting MpA in a serial dilution of 30, 10, 3.3, 1.1 and 0.3 nM with an association of 180 s and dissociation of 1800 s using a constant flow of 100 μl/min (see Table 3). The measurement was repeated three times and the targets were regenerated between the individual measurements using 10 mM glycine pH 2 and 124 mM H₃PO₄. The signals were double referenced against the running buffer (PBST) treated control lane of L1 and A6. h4-1BB, c-4-1BB, and m4-1BB refer to human, cynomolgus, and mouse orthologs of 4-1BB, respectively.

[3] = biological target: T3, human 4-1BB on primary human CD8 T cells (human, UniProt Q07011 24-255); assay: cell-based or functional assay
T3 sequence (Q07011 24-255 limits assumed): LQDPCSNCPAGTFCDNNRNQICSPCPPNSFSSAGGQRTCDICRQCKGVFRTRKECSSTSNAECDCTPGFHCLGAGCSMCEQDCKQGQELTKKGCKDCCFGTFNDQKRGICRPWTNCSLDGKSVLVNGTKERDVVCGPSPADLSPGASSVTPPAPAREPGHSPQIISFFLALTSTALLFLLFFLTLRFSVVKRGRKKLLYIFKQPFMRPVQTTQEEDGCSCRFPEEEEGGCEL

[4] = biological target: T2, biotinylated human 4-1BB (bio.h4-1BB); assay: SPR (ProteOn XPR36), bio.h4-1BB on NLC chip, MpA analyte; mean of triplicate; apparent affinity (bivalent)
Procedure: as §3

[5] = biological target: mouse serum albumin (MSA) (mouse, UniProt P07724 25-608); assay: SPR (ProteOn XPR36), MpA captured on bio.h4-1BB, MSA analyte, 1:1 Langmuir fit
mouse serum albumin (MSA), sequence (P07724 25-608 limits assumed): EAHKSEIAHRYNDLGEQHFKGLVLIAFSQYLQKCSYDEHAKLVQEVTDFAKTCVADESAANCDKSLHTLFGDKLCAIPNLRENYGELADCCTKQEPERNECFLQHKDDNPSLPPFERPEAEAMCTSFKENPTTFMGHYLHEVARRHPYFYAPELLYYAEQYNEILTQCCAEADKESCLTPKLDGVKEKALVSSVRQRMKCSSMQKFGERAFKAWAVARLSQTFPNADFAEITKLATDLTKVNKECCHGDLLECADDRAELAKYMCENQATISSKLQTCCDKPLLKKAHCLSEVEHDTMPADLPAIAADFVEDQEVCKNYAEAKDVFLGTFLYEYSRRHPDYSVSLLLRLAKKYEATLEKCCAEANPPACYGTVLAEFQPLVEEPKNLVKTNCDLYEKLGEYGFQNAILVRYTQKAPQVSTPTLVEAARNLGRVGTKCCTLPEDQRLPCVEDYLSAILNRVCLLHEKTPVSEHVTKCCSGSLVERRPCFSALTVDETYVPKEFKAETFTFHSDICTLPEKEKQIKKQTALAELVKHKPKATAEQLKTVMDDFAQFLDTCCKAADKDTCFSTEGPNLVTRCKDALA
Procedure: as §1

[6] = biological target: human 4-1BB on transfected HT1080 NF-kB-luciferase reporter cells (human, UniProt Q07011 24-255); assay: cell-based or functional assay
human 4-1BB on transfected HT1080 NF-kB-luciferase reporter cells, sequence (Q07011 24-255 limits assumed): as the sequence (Q07011 24-255 limits assumed) above

mouse FAP (mFAP) = mouse FAP (mFAP) (mouse, UniProt P97321 26-761, limits assumed); assay: SPR (ProteOn XPR36), mFAP on GLC chip, MpA as analyte
mouse FAP (mFAP), sequence (P97321 26-761 limits assumed): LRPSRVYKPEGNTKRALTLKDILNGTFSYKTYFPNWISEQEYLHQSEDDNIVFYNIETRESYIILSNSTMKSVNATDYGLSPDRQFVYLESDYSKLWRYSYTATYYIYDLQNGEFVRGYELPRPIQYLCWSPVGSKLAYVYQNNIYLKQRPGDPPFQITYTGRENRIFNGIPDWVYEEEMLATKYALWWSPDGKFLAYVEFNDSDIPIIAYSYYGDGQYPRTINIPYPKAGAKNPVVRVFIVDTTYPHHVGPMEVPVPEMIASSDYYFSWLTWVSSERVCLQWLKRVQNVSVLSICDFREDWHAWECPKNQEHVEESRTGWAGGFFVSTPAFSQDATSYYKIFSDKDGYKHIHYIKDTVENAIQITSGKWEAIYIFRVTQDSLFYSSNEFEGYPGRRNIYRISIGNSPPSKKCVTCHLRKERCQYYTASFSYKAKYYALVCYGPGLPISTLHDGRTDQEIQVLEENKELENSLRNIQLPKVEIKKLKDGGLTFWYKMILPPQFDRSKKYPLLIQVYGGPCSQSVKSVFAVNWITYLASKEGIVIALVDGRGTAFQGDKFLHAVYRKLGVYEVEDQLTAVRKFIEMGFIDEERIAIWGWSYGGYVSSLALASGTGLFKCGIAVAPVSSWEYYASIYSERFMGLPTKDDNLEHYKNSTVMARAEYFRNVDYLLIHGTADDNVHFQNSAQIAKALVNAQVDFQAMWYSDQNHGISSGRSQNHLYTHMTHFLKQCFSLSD
Procedure: as §2

[7] = biological target: T3, human 4-1BB on primary human CD8 T cells; assay: cell-based or functional assay; remark: listed apart in the source
[8] = biological target: T4, human fibroblast activation protein (hFAP) (human, UniProt Q12884 26-760, limits assumed); assay: SPR (ProteOn XPR36), hFAP on GLC chip, MpA analyte, 1:1 Langmuir fit; mean of duplicate
T4 construct: Recombinant soluble protein; also called human FAP; rhFAP
Procedure: as §2
Two independent measurements were conducted to detect the binding of MpA to hFAP. The targets were regenerated using 10 mM glycine pH 2 and 124 mM H₃PO₄. The signals were double referenced against the PBST treated control lane of L1 and A6. The 1:1 Langmuir model was used for the fitting.

[9] = biological target: human serum albumin (HSA) (human, UniProt P02768 25-609); assay: SPR (ProteOn XPR36), MpA captured on bio.h4-1BB, HSA analyte, 1:1 Langmuir fit
Procedure: as §1

[10] = biological target: T5, biotinylated mouse 4-1BB (bio.m4-1BB) (mouse, UniProt P20334 24-187, limits assumed, biotinylated (site not stated)); assay: SPR (ProteOn XPR36), bio.m4-1BB on NLC chip, MpA as analyte
T5 sequence (looked up): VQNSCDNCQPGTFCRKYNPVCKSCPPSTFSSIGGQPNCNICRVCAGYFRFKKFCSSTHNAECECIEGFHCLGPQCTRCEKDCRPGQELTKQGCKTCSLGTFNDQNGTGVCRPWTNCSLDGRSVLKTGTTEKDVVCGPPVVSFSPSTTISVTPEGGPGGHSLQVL
Procedure: as §3

[11] = biological target: T2, biotinylated human 4-1BB (bio.h4-1BB); assay: SPR (ProteOn XPR36), biotinylated human 4-1BB immobilised, construct as analyte
[12] = biological target: T4, human fibroblast activation protein …; assay: SPR (ProteOn XPR36), hFAP immobilised on GLC chip, construct as analyte
Procedure: Assay set-up: Briefly, SPR measurements were performed using a ProteOn XPR36 instrument (BioRad) as described above. Biotinylated human and cynomolgus 4-1BB and human FAP were immobilized either directly or indirectly via NeutrAvidin (˜6000 RU pre-coated) on a GLC chip to reach 600 RU, 700 RU and 2000 RU, respectively. The interaction of FAP-4-1BB bispecific constructs to the coated targets was measured by injecting the bispecific constructs in a serial dilution of 50, 16.7, 5.6, 1.9 and 0.6 nM with an association of 120 s and dissociation of 1800 s using a constant flow rate of 30 μl/min. Targets were regenerated between the individual measurements using 10 mM glycine pH 2 and 124 mM H₃PO₄. The signals were double referenced against the running buffer (PBST) treated control lane.
Target sequence in this assay (Q12884 26-760 limits assumed): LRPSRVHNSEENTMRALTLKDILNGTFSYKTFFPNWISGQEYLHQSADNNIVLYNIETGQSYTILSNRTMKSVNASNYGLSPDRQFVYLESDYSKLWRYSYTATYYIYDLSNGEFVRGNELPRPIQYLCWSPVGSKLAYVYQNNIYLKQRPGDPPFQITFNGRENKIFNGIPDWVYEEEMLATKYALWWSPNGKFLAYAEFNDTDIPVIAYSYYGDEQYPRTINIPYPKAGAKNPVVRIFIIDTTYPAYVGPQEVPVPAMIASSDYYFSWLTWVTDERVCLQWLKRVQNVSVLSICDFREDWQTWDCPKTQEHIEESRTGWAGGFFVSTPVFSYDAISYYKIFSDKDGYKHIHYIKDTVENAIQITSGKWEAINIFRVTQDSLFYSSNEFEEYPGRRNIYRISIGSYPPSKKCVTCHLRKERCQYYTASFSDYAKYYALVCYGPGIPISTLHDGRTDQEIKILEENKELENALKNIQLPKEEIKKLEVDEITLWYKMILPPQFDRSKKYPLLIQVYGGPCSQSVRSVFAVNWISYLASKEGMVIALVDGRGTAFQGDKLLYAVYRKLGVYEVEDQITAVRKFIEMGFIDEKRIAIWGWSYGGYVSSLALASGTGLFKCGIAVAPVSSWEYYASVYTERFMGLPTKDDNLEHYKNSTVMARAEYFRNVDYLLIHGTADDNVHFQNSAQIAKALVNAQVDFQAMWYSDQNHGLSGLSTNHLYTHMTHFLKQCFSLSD

cynomolgus serum albumin (CSA), sequence (A2V9Z4 25-608 limits assumed): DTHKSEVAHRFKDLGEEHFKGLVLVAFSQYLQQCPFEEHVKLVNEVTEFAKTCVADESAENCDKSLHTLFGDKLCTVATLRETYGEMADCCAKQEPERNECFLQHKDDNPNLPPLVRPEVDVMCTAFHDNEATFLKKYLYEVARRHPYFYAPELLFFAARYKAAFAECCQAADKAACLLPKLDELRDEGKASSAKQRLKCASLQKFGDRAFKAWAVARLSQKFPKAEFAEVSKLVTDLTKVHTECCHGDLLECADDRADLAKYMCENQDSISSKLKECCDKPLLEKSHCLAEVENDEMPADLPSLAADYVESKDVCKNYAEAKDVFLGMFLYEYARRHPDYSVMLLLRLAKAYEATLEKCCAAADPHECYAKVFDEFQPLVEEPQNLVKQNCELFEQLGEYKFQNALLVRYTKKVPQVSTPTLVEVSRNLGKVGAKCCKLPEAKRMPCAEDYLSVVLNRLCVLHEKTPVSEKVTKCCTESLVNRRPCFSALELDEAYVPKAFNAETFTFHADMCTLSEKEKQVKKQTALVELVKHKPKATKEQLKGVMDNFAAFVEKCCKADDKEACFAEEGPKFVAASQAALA

Kd [1]: 67 nM
koff [1]: 0.075 s⁻¹
kon [1]: 1.1e+06 M⁻¹ s⁻¹
Kd (cynomolgus FAP (cFAP)): 0.8 nM
koff (cynomolgus FAP (cFAP)): 0.00013 s⁻¹
kon (cynomolgus FAP (cFAP)): 170000 M⁻¹ s⁻¹
koff [2]: 3.2e-05 s⁻¹
kon [2]: 2.6e+06 M⁻¹ s⁻¹
EC50, IFNγ production by primary human CD8 T cells (anti-CD3 plus plate-coated hFAP) [3]: 1.17 nM
Kd [4]: 0.013 nM
Kd [5]: 38 nM
koff [5]: 0.038 s⁻¹
kon [5]: 1e+06 M⁻¹ s⁻¹
EC50, NF-κB-luciferase reporter in h4-1BB-HT1080 cells with CHO-hFAP cells [6]: 0.41 nM
EC50, IFNγ secretion of human CD8 T cells (plate-coated hFAP) [7]: 1 to 2 nM
Kd [8]: 0.4 nM
koff [8]: 0.00013 s⁻¹
kon [8]: 470000 M⁻¹ s⁻¹
Kd [9]: 8 nM
koff [9]: 0.012 s⁻¹
kon [9]: 1.5e+06 M⁻¹ s⁻¹
B1: Multispecific binding protein A (MpA) (designed binder)
chain: GSDLGKKLLEAARAGQDDEVRELLKAGADVNAKDYFSHTPLHLAARNGHLKIVEVLLKAGADVNAKDFAGKTPLHLAAADGHLEIVEVLLKAGADVNAQDIFGKTPADIAADAGHEDIAEVLQKAAGSPTPTPTTPTPTPTTPTPTPTGSDLGKKLLEAARAGQDDEVRELLKAGADVNAKDVLGWTPLHLAAFEGHLEIVEVLLKAGADVNAKDKKGWTPLQLAARTGHLEIVEVLLKAGADVNAKDHIGATPLHLAAWQGHPEIVEVLLKAGADVNAQDKSGKTPADLAADAGHEDIAEVLQKAAGSPTPTPTTPTPTPTTPTPTPTGSDLGQKLLKAAQEGQDDEVRELLKAGADVNAKDLRGITPLHVAAWQGHLEIVEVLLKAGADVNAKDSKGETPLHLAAFRGHLEIVEVLLKAGADVNAQDQQGETPADLAALAGHVDIAEVLQKAAGSPTPTPTTPTPTPTTPTPTPTGSDLGQKLLKAAQEGQDDEVRELLKAGADVNAKDLRGITPLHVAAWQGHLEIVEVLLKAGADVNAKDSKGETPLHLAAFRGHLEIVEVLLKAGADVNAQDQQGETPADLAALAGHVDIAEVLQKAAGSPTPTPTTPTPTPTTPTPTPTGSDLGKKLLEAARAGQDDEVRELLKAGADVNAKDYFSHTPLHLAARNGHLKIVEVLLKAGADVNAKDFAGKTPLHLAAADGHLEIVEVLLKAGADVNAQDIFGKTPADIAADAGHEDIAEVLQKAA
notes: also called HFBBH
binding result (mouse FAP (mFAP)): no binding (tested: 50 nM highest concentration injected)
binding result [10]: no binding (tested: 30 nM highest concentration injected)

Kd [12]: 0.22 nM
B2: bispecific construct #50 (designed binder)
chain: MRGSHHHHHHGSDLGEKLLVAALYGQDDEVRILLAAGADVNAKDQWGLTPLHKAALQGHLEIVEVLLKAGADVNAKDERGHTPLHWAARFGHLEIVEVLLKAGADVNAQDQKGYTPADLAALWGHEDIAEVLQKAAGSPTPTPTTPTPTPTTPTPTPTGSDLGKKLLEAARAGQDDEVRELLKAGADVNAKDKDGYTPLHLAAREGHLEIVEVLLKAGADVNAKDKDGYTPLHLAAREGHLEIVEVLLKAGADVNAQDKSGKTPADLAADAGHEDIAEVLQKAA
notes: also called negative control construct #50
binding result [11]: no binding (tested: 50 nM highest concentration injected)
